Reference: patent US20250043302A1, “MUTATED HYDROXYPHENYLPYRUVATE DIOXYGENASE POLYPEPTIDE, AND CODING GENE AND USE THEREOF” (BEIJING DABEINONG BIOTECHNOLOGY CO., LTD., priority 2021, published 2025)

B1: ZmHPPD-02: nucleotide sequence encoding wild-type Zea mays HPPD; vector DBN11766 (nucleic acid)
DNA: ATGCCACCCACACCCACAGCAGCAGCGGCGGGCGCAGCGGTCGCAGCGGCGTCAGCGGCGGAGCAAGCGGCGTTCAGATTGGTTGGTCACCGCAACTTCGTGAGATTCAATCCTCGCTCAGATAGATTCCATACTCTGGCCTTCCACCATGTTGAGCTTTGGTGCGCTGATGCTGCTTCTGCTGCTGGAAGGTTCAGCTTCGGTTTGGGTGCTCCCCTCGCTGCTAGATCTGATTTGAGCACTGGTAACTCAGCACATGCTTCCCTCCTGCTTAGATCTGGCTCTCTGAGCTTCCTTTTCACTGCTCCATATGCTCATGGTGCTGATGCTGCTACAGCTGCTCTCCCTTCATTCTCCGCTGCTGCTGCTAGGAGATTCGCTGCTGATCACGGATTGGCTGTGAGGGCTGTTGCACTTAGAGTTGCTGATGCTGAGGAGGCCTTCCGCACCTCTGTTGCTGCTGGAGCCAGACCAGCTTTCGGACCTGTTGATCTCGGAAGGGGTTTCCGCCTGGCTGAGGTGGAGCTTTACGGCGATGTGGTTCTGCGCTACGTTAGCTATCCTGATGGTGCTGCTGGTGAACCTTTCCTTCCAGGATTCGAGGGTGTGGCCTCACCAGGTGCCGCTGATTACGGCCTGTCCAGATTCGACCACATTGTTGGAAATGTTCCTGAGCTTGCTCCAGCTGCTGCCTACTTCGCTGGCTTCACCGGATTCCATGAGTTCGCCGAGTTCACCACTGAGGATGTGGGAACTGCTGAGTCTGGTTTGAATAGCATGGTGCTCGCCAACAATTCAGAGAACGTTTTGCTCCCTCTGAATGAGCCCGTGCACGGAACAAAGAGAAGGTCCCAGATTCAAACCTTCTTGGATCACCACGGCGGCCCAGGTGTTCAGCATATGGCTCTCGCCTCCGATGACGTGTTGAGAACCCTCAGGGAGATGCAAGCCAGGTCTGCTATGGGTGGCTTCGAGTTCATGGCCCCACCTACAAGCGATTACTATGATGGTGTGCGCAGAAGGGCTGGCGACGTTCTTACCGAGGCTCAGATCAAGGAGTGCCAAGAGCTGGGCGTGCTTGTTGATAGAGATGACCAGGGAGTTCTGCTTCAAATTTTCCCCAAGCCAGTGGGCGACAGGCCTACTTTGTTCCTCGAGATTATCCAGAGAATCGGATGCATGGAGAGGGATGAGAAGGGTCAGGAGTACCAAAAGGGAGGTTGCGGCGGATTCGGCAAGGGAAATTTCTCACAACTCTTCAAGTCCATCGAGGACTATGAAAAGAGTCTGGAAGCGATGCAGGCAGCAGCAGCAGCAACCGCACAGGGGTCGTGA
modifications: ZmHPPD-02 Nucleotide Sequence
notes: vector DBN11766
B2: ZmHPPDm-F372A-F383W-02: nucleotide sequence encoding Zea mays HPPD with F372A+F383W; vector DBN11769 (nucleic acid)
DNA: ATGCCACCCACACCCACAGCAGCAGCGGCGGGCGCAGCGGTCGCAGCGGCGTCAGCGGCGGAGCAAGCGGCGTTCAGATTGGTTGGTCACCGCAACTTCGTGAGATTCAATCCTCGCTCAGATAGATTCCATACTCTGGCCTTCCACCATGTTGAGCTTTGGTGCGCTGATGCTGCTTCTGCTGCTGGAAGGTTCAGCTTCGGTTTGGGTGCTCCCCTCGCTGCTAGATCTGATTTGAGCACTGGTAACTCAGCACATGCTTCCCTCCTGCTTAGATCTGGCTCTCTGAGCTTCCTTTTCACTGCTCCATATGCTCATGGTGCTGATGCTGCTACAGCTGCTCTCCCTTCATTCTCCGCTGCTGCTGCTAGGAGATTCGCTGCTGATCACGGATTGGCTGTGAGGGCTGTTGCACTTAGAGTTGCTGATGCTGAGGAGGCCTTCCGCACCTCTGTTGCTGCTGGAGCCAGACCAGCTTTCGGACCTGTTGATCTCGGAAGGGGTTTCCGCCTGGCTGAGGTGGAGCTTTACGGCGATGTGGTTCTGCGCTACGTTAGCTATCCTGATGGTGCTGCTGGTGAACCTTTCCTTCCAGGATTCGAGGGTGTGGCCTCACCAGGTGCCGCTGATTACGGCCTGTCCAGATTCGACCACATTGTTGGAAATGTTCCTGAGCTTGCTCCAGCTGCTGCCTACTTCGCTGGCTTCACCGGATTCCATGAGTTCGCCGAGTTCACCACTGAGGATGTGGGAACTGCTGAGTCTGGTTTGAATAGCATGGTGCTCGCCAACAATTCAGAGAACGTTTTGCTCCCTCTGAATGAGCCCGTGCACGGAACAAAGAGAAGGTCCCAGATTCAAACCTTCTTGGATCACCACGGCGGCCCAGGTGTTCAGCATATGGCTCTCGCCTCCGATGACGTGTTGAGAACCCTCAGGGAGATGCAAGCCAGGTCTGCTATGGGTGGCTTCGAGTTCATGGCCCCACCTACAAGCGATTACTATGATGGTGTGCGCAGAAGGGCTGGCGACGTTCTTACCGAGGCTCAGATCAAGGAGTGCCAAGAGCTGGGCGTGCTTGTTGATAGAGATGACCAGGGAGTTCTGCTTCAAATTGCTCCCAAGCCAGTGGGCGACAGGCCTACTTTGTGGCTCGAGATTATCCAGAGAATCGGATGCATGGAGAGGGATGAGAAGGGTCAGGAGTACCAAAAGGGAGGTTGCGGCGGATTCGGCAAGGGAAATTTCTCACAACTCTTCAAGTCCATCGAGGACTATGAAAAGAGTCTGGAAGCGATGCAGGCAGCAGCAGCAGCAACCGCACAGGGGTCGTGA
modifications: ZmHPPDm-F372A-F383W-02 Nucleotide Sequence
notes: vector DBN11769

Tests used:
Type in all cases: in vivo
[1] = tested on: Arabidopsis thaliana T1 plants; assay: Mesotrione tolerance of transgenic Arabidopsis thaliana T1 plants (spray, bleached leaf area grade, damage score); set-up: Scores: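 damage score 0-100 computed as Σ(N×S)/(T×M)×100 over grades 0-3 with higher meaning more damage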; settings: Arabidopsis thaliana T1 plants; for Grade 0 (classification and statistics of the grade of pesticide damage; number of plants) / Grade 1 (classification and statistics of the grade of pesticide damage; number of plants) / Grade 2 (classification and statistics of the grade of pesticide damage; number of plants) / Grade 3 (classification and statistics of the grade of pesticide damage; number of plants): 16 plants
Method in brief: (§1)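 Damage graded 0–3 from the proportion of bleached leaf area 7 days after spraying. Plants were glufosinate-selected T1 lines, 18 days after sowing, plus vector and wild-type controls. Rates: mesotrione 52.5–420, isoxaflutole 35–280, topramezone 25–200 g ai/ha, with water (0×).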

[2] = tested on: Arabidopsis thaliana T1 plants; assay: Isoxaflutole tolerance of transgenic Arabidopsis thaliana T1 plants (spray, bleached leaf area grade, damage score); set-up: Scores (pesticide damage): scale not given here; settings: spray, Arabidopsis thaliana T1 plants; for Classification and statistics of the grade of pesticide damage: Grade 0 (number of plants) / Classification and statistics of the grade of pesticide damage: Grade 1 (number of plants) / Classification and statistics of the grade of pesticide damage: Grade 2 (number of plants) / Classification and statistics of the grade of pesticide damage: Grade 3 (number of plants): 16 plants
Method in brief: as §1

[3] = tested on: Arabidopsis thaliana T1 plants; assay: Topramezone tolerance of transgenic Arabidopsis thaliana T1 plants (spray, bleached leaf area grade, damage score); settings: 7 DAT, Table 4; for Classification and statistics of the grade of pesticide damage: Grade 0 / Classification and statistics of the grade of pesticide damage: Grade 1 / Classification and statistics of the grade of pesticide damage: Grade 2 / Classification and statistics of the grade of pesticide damage: Grade 3: number of plants; for Scores: pesticide damage score 0-100
Method in brief: as §1

[4] = isoxaflutole 35 g ai/ha (0.5x field concentration)
[5] = isoxaflutole 70 g ai/ha (1x field concentration)

Molecule	Resistance evaluation ([1]; mesotrione 52.5 g ai/ha)	Scores ([1]; mesotrione 52.5 g ai/ha)	Grade 0 (classification and statistics of the grade of pesticide damage; number of plants) ([1]; mesotrione 52.5 g ai/ha)	Grade 1 (classification and statistics of the grade of pesticide damage; number of plants) ([1]; mesotrione 52.5 g ai/ha)	Grade 2 (classification and statistics of the grade of pesticide damage; number of plants) ([1]; mesotrione 52.5 g ai/ha)	Grade 3 (classification and statistics of the grade of pesticide damage; number of plants) ([1]; mesotrione 52.5 g ai/ha)	Resistance evaluation ([1]; mesotrione 105 g ai/ha)	Scores ([1]; mesotrione 105 g ai/ha)	Grade 0 (classification and statistics of the grade of pesticide damage; number of plants) ([1]; mesotrione 105 g ai/ha)	Grade 1 (classification and statistics of the grade of pesticide damage; number of plants) ([1]; mesotrione 105 g ai/ha)	Grade 2 (classification and statistics of the grade of pesticide damage; number of plants) ([1]; mesotrione 105 g ai/ha)	Grade 3 (classification and statistics of the grade of pesticide damage; number of plants) ([1]; mesotrione 105 g ai/ha)	Resistance evaluation [2, 4]	Scores (pesticide damage) [2, 4]	Classification and statistics of the grade of pesticide damage: Grade 0 (number of plants) [2, 4]	Classification and statistics of the grade of pesticide damage: Grade 1 (number of plants) [2, 4]	Classification and statistics of the grade of pesticide damage: Grade 2 (number of plants) [2, 4]	Classification and statistics of the grade of pesticide damage: Grade 3 (number of plants) [2, 4]	Resistance evaluation [2, 5]	Scores (pesticide damage) [2, 5]	further results
B1	Non-resistant	100	0	0	0	16	Non-resistant	100	0	0	0	16	Non-resistant	100	0	0	0	16	Non-resistant	100	Classification and statistics of the grade of pesticide damage: Grade 0 (number of plants) [2, 5]: 0; Classification and statistics of the grade of pesticide damage: Grade 1 (number of plants) [2, 5]: 0; Classification and statistics of the grade of pesticide damage: Grade 2 (number of plants) [2, 5]: 0; Classification and statistics of the grade of pesticide damage: Grade 3 (number of plants) [2, 5]: 16; Classification and statistics of the grade of pesticide damage: Grade 0 ([3]; topramezone 25 g ai/ha (1×)): 0; Classification and statistics of the grade of pesticide damage: Grade 1 ([3]; topramezone 25 g ai/ha (1×)): 0; Classification and statistics of the grade of pesticide damage: Grade 2 ([3]; topramezone 25 g ai/ha (1×)): 0; Classification and statistics of the grade of pesticide damage: Grade 3 ([3]; topramezone 25 g ai/ha (1×)): 16; Classification and statistics of the grade of pesticide damage: Grade 0 ([3]; topramezone 100 g ai/ha (4×)): 0; Classification and statistics of the grade of pesticide damage: Grade 1 ([3]; topramezone 100 g ai/ha (4×)): 0; Classification and statistics of the grade of pesticide damage: Grade 2 ([3]; topramezone 100 g ai/ha (4×)): 0; Classification and statistics of the grade of pesticide damage: Grade 3 ([3]; topramezone 100 g ai/ha (4×)): 16; Scores ([3]; topramezone 25 g ai/ha (1×)): 100; Scores ([3]; topramezone 100 g ai/ha (4×)): 100; Resistance evaluation ([3]; topramezone 25 g ai/ha (1×)): non-resistant (non-resistant plants (scores 68-100)); Resistance evaluation ([3]; topramezone 100 g ai/ha (4×)): non-resistant (non-resistant plants (scores 68-100))
B2	Highly resistant	15	9	7	0	0	Moderately	33	3	10	3	0	Moderately	25	5	10	1	0	Poorly	38	Classification and statistics of the grade of pesticide damage: Grade 0 (number of plants) [2, 5]: 3; Classification and statistics of the grade of pesticide damage: Grade 1 (number of plants) [2, 5]: 8; Classification and statistics of the grade of pesticide damage: Grade 2 (number of plants) [2, 5]: 5; Classification and statistics of the grade of pesticide damage: Grade 3 (number of plants) [2, 5]: 0; Classification and statistics of the grade of pesticide damage: Grade 0 ([3]; topramezone 25 g ai/ha (1×)): 16; Classification and statistics of the grade of pesticide damage: Grade 1 ([3]; topramezone 25 g ai/ha (1×)): 0; Classification and statistics of the grade of pesticide damage: Grade 2 ([3]; topramezone 25 g ai/ha (1×)): 0; Classification and statistics of the grade of pesticide damage: Grade 3 ([3]; topramezone 25 g ai/ha (1×)): 0; Classification and statistics of the grade of pesticide damage: Grade 0 ([3]; topramezone 100 g ai/ha (4×)): 10; Classification and statistics of the grade of pesticide damage: Grade 1 ([3]; topramezone 100 g ai/ha (4×)): 5; Classification and statistics of the grade of pesticide damage: Grade 2 ([3]; topramezone 100 g ai/ha (4×)): 1; Classification and statistics of the grade of pesticide damage: Grade 3 ([3]; topramezone 100 g ai/ha (4×)): 0; Scores ([3]; topramezone 25 g ai/ha (1×)): 0; Scores ([3]; topramezone 100 g ai/ha (4×)): 15; Resistance evaluation ([3]; topramezone 25 g ai/ha (1×)): highly; Resistance evaluation ([3]; topramezone 100 g ai/ha (4×)): highly
